The values that follow come from the Immune Epitope Database (IEDB).

Broadly, the pKd is −log10 of the Kd, conventionally taken in molar units. A higher pKd goes with a low Kd. One may read the pIC50 as the negative decadic logarithm of the IC50, by convention in mol/L.

In one test the target is HLA-C*07:02. The test is described as follows: IEDB peptide-MHC binding, purified MHC/direct/fluorescence; filed as Kd, often an IC50 or EC50 that approximates it; ≥ and ≤ were set here for values at or beyond the usual limits of such assays.
Test [1] has as its target HLA-A*26:01. In words: IEDB peptide-MHC binding, purified MHC/competitive/fluorescence; filed as Kd, often an IC50 or EC50 that approximates it; ≥ and ≤ were set here for values at or beyond the usual limits of such assays.
The target in a further test is HLA-A*69:01. The test is described as above.
The next test concerns the target HLA-B*46:01. The test is described as above.
The target in the next test is HLA-B*27:03. The test is described as above.
Test [2] addresses HLA-A*02:01. Described as above.
For a further test, the target named is HLA-B*51:01. The description is as above.
For another test, the target named is HLA-B*15:17. The test is described as above. The settings on record: source organism: Zaire ebolavirus.
In another test the target is HLA-B*57:01. The description is as above.
The target of test [3] is HLA-B*15:01. The test is described as above. As to conditions: source organism: Zaire ebolavirus.
The next test deals with HLA-B*39:01. The test is described as above.
The next test has as its target HLA-A*23:01. In words: IEDB peptide-MHC binding, purified MHC/direct/fluorescence; filed as Kd, often an IC50 or EC50 that approximates it; ≥ and ≤ were set here for values at or beyond the usual limits of such assays.
Another test concerns the target HLA-A*02:16. The description is as above.
The next test has as its target HLA-A*29:02. The test is described as above.
For another test, the target named is HLA-B*40:01. The test is described as above. The settings on record: source organism: Sudan ebolavirus - Maleo (1979).
A further test deals with HLA-A*03:01. The test is described as above.
The target in the next test is HLA-A*02:12. Described as above.
Another test has as its target HLA-A*02:03. Described as above.
Test [4] deals with HLA-A*24:03. The description is as above.
Test [5] has as its target HLA-A*02:19. The test is described as above.
A further test concerns the target HLA-A*68:02. Described as above.
The next test addresses HLA-A*02:11. The test is described as above.
A further test deals with HLA-B*08:01. In words: IEDB peptide-MHC binding, purified MHC/competitive/fluorescence; ≥ and ≤ were set here for values at or beyond the usual limits of such assays.
Test [6] concerns the target HLA-A*24:03. In words: IEDB peptide-MHC binding, purified MHC/competitive/fluorescence; filed as Kd, often an IC50 or EC50 that approximates it; ≥ and ≤ were set here for values at or beyond the usual limits of such assays. As to conditions: source organism: Orthohantavirus andesense.
The target in another test is HLA-B*18:01. Described as above.
The target in test [7] is HLA-A*26:01. The test is described as follows: IEDB peptide-MHC binding, purified MHC/direct/fluorescence; filed as Kd, often an IC50 or EC50 that approximates it; ≥ and ≤ were set here for values at or beyond the usual limits of such assays. As to conditions: source organism: Orthohantavirus andesense.
The target in test [8] is HLA-A*02:01. The test is described as follows: IEDB peptide-MHC binding, purified MHC/competitive/fluorescence; ≥ and ≤ were set here for values at or beyond the usual limits of such assays. The settings on record: source organism: Vaccinia virus Copenhagen.
The target of the next test is HLA-A*24:02. The test is described as above. The settings on record: source organism: Zaire ebolavirus.
In test [9] the target is HLA-A*02:19. The test is described as follows: IEDB peptide-MHC binding, purified MHC/competitive/fluorescence; filed as Kd, often an IC50 or EC50 that approximates it; ≥ and ≤ were set here for values at or beyond the usual limits of such assays. The settings on record: source organism: Toxoplasma gondii RH.
In a further test the target is HLA-C*12:03. The test is described as follows: IEDB peptide-MHC binding, purified MHC/direct/fluorescence; filed as Kd, often an IC50 or EC50 that approximates it; ≥ and ≤ were set here for values at or beyond the usual limits of such assays. As to conditions: source organism: Callithrix jacchus.
The target of test [10] is HLA-B*15:01. The test is described as above. The settings on record: source organism: Reston ebolavirus - Reston.
[11] abbreviates: source organism: Zaire ebolavirus.
Where [12] appears, read: source organism: Orthohantavirus andesense.
[13] abbreviates: source organism: Bacillus anthracis str. A2012.
[14] abbreviates: source organism: Bacillus anthracis str. A0488.

pIC50, pKd: −log10 of the molar value.

With ALPPRAFEL, the pKd in the test with HLA-C*07:02 (source organism: Mycobacterium tuberculosis F11) is 7.07.
For DETFVHSGF, the pKd in the test with HLA-A*26:01 [1] (setting [11]), with HLA-A*69:01 (setting [11]), with HLA-B*46:01 (setting [11]), with HLA-B*27:03 (setting [11]), in the test with HLA-A*02:01 [2] (setting [11]) and with HLA-B*51:01 (setting [11]) was at most 4.70 each time. The pKd with HLA-B*15:17, in the test with HLA-B*57:01 (setting [11]), with HLA-B*15:01 [3], with HLA-B*39:01 (setting [11]), with HLA-A*23:01 (setting [11]) and with HLA-A*02:16 (setting [11]) was at most 4.70 each time. Also, the negative logarithm of the Kd (pKd) with HLA-A*29:02 (setting [11]), with HLA-B*40:01, with HLA-A*03:01 (setting [11]), with HLA-A*02:12 (setting [11]), with HLA-A*02:03 (setting [11]) and with HLA-A*24:03 [4] (setting [11]) was at most 4.70 in each case. For the same sequence, the pKd with HLA-A*02:19 [5] (setting [11]), with HLA-A*68:02 (setting [11]) and in the test with HLA-A*02:11 (setting [11]) was at most 4.70 in each case.
In turn, DSRPQKIWM gave a pIC50 in the test with HLA-B*08:01 (setting [11]) of at most 4.02.
In the case of DWMDRIEEF, the negative-log Kd (pKd) with HLA-A*26:01 [1] (setting [12]), with HLA-A*69:01 (setting [12]), with HLA-B*46:01 (setting [12]), with HLA-B*27:03 (setting [12]), with HLA-A*02:01 [2] (setting [12]) and with HLA-B*51:01 (setting [12]) was at most 4.70 throughout. Further, the pKd is at most 4.70 with HLA-B*57:01 (setting [12]); 6.81 with HLA-A*24:03 [6]; at most 4.70 with HLA-B*18:01 (setting [12]); at most 4.70 with HLA-B*39:01 (setting [12]); at most 4.70 in the test with HLA-A*02:16 (source organism: Maporal virus); at most 4.70 in the test with HLA-A*29:02 (source organism: Maporal virus). In addition, the negative logarithm of the Kd (pKd) with HLA-A*03:01 (source organism: Maporal virus), with HLA-A*02:12 (source organism: Maporal virus), with HLA-A*02:03 (source organism: Maporal virus), in the test with HLA-A*02:19 [5] (source organism: Maporal virus) and in the test with HLA-A*02:11 (source organism: Maporal virus) was at most 4.70 in each case.
Regarding EVLKAMSLY, the negative logarithm of the Kd (pKd) with HLA-B*46:01 (setting [12]), in the test with HLA-B*27:03 (setting [12]), with HLA-A*02:01 [2] (setting [12]), in the test with HLA-B*51:01 (setting [12]), in the test with HLA-B*57:01 (setting [12]) and with HLA-B*39:01 (setting [12]) was at most 4.70 in each case. In addition, the negative logarithm of the Kd (pKd) with HLA-A*23:01 (setting [12]) was at most 4.70; with HLA-A*26:01 [7] it was 8.41; in the test with HLA-A*03:01 (setting [12]), at most 4.70; with HLA-A*02:12 (setting [12]), at most 4.70; in the test with HLA-A*02:03 (setting [12]), at most 4.70; with HLA-A*24:03 [4] (setting [12]), at most 4.70. Moreover, the pKd in the test with HLA-A*02:19 [5] (setting [12]), with HLA-A*68:02 (setting [12]) and in the test with HLA-A*02:11 (setting [12]) was at most 4.70 each time.
Regarding FALKKLIID, the negative-log IC50 (pIC50) with HLA-A*02:01 [8] was at most 3.79; with HLA-B*08:01 (source organism: Vaccinia virus Copenhagen) it was at most 3.68.
Regarding FEEMYRHIL, the pIC50 in the test with HLA-A*24:02 is 4.59; with HLA-B*08:01 (setting [11]), at most 4.09.
As to FLIYFRSPL, the pKd with HLA-A*02:01 [2] (setting [13]) was 7.97; in the test with HLA-C*07:02 (setting [13]) it was 5.84.
FRMTENVPL: the pKd with HLA-B*39:01 (setting [14]) is 8.77; in the test with HLA-C*07:02 (setting [14]) it was 7.32.
As to NFHQKKNEI, the negative logarithm of the IC50 (pIC50) in the test with HLA-A*24:02 is 5.09; with HLA-B*08:01 (setting [11]) it was 4.18.
On to SIFERIREA, for which the negative logarithm of the Kd (pKd) is 8.70 with HLA-A*02:01 [2] (source organism: Toxoplasma gondii RH) and 5.94 with HLA-A*02:19 [9].
Regarding VAANIVLTV, the pKd was 7.84 in the test with HLA-A*02:01 [2] (source organism: Homo sapiens) and at least 9.00 with HLA-C*12:03.
Take WQQWDRQSL: the pKd in the test with HLA-A*26:01 [1] (setting [11]), in the test with HLA-A*69:01 (setting [11]), with HLA-B*46:01 (setting [11]), with HLA-B*27:03 (setting [11]), in the test with HLA-A*02:01 [2] (setting [11]) and in the test with HLA-B*51:01 (setting [11]) was at most 4.70 throughout. The pKd in the test with HLA-B*15:17, in the test with HLA-B*57:01 (setting [11]), in the test with HLA-B*18:01 (setting [11]), with HLA-A*23:01 (setting [11]), with HLA-A*02:16 (setting [11]) and with HLA-A*29:02 (setting [11]) was at most 4.70 in each case. Further, the negative logarithm of the Kd (pKd) with HLA-A*03:01 (setting [11]), with HLA-A*02:12 (setting [11]), in the test with HLA-A*02:03 (setting [11]), with HLA-A*24:03 [4] (setting [11]), in the test with HLA-A*02:19 [5] (setting [11]) and with HLA-A*68:02 (setting [11]) was at most 4.70 throughout. Besides, the results for the negative logarithm of the Kd (pKd) with HLA-A*02:11 (setting [11]) and in the test with HLA-B*15:01 [10] were at most 4.70 and 6.90, respectively.
YRSMIAFKL: the pKd with HLA-C*07:02 (source organism: Entamoeba histolytica HM-1:IMSS) is 7.35.
